Measured values published in paper PMC9016351.

How the values were obtained:
[1] = molecular target: RA‐BAX (UniProt Q07812); assay: ddFP assay in cells (confocal microscopy); conditions: U2OS BAX/BAK DKO cells, 3 h after apoptosis induction; n = 3 independent experiments (n = 100 cells each); parent: est. 28; read off a plot
[2] = molecular target: GB‐DRP1; assay: ddFP assay in cells (confocal microscopy); conditions: U2OS BAX/BAK DKO cells, 3 h after apoptosis induction; n = 3 independent experiments (n = 100 cells each); parent: est. 21; read off a plot

Sequence of UniProt Q07812 (Q07812 whole entry): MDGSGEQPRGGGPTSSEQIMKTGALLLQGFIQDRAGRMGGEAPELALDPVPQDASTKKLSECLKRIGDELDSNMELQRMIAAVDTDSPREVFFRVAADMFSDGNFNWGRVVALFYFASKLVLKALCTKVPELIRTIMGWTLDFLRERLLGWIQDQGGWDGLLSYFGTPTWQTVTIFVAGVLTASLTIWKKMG

Substance	response [1] [%]	response [2] [%]
GB‐DRP1 D221A	27	
GB‐DRP1 K38A	24	
GB‐DRP1 K557R; K560R; K569R; K571R	35	
GB‐DRP1 K642E	33	
GB‐DRP1 R376E	34	
RA‐BAX (from UniProt Q07812) G40E		15
RA‐BAX (from UniProt Q07812) G67R		15
RA‐BAX (from UniProt Q07812) G67R; S184V		3
RA‐BAX (from UniProt Q07812) K21E		31
RA‐BAX (from UniProt Q07812) K21E; R134E		26
RA‐BAX (from UniProt Q07812) K57E		22
RA‐BAX (from UniProt Q07812) K58E		21
RA‐BAX (from UniProt Q07812) L59C		38
RA‐BAX (from UniProt Q07812) L63E		0
RA‐BAX (from UniProt Q07812) R134E		19
RA‐BAX (from UniProt Q07812) S184V		7.5
